A short description of series [1]: Physical stability of solution in the vehicle. The settings on record: incubation at 25 degrees Celsius for 28 days; stated in the description, no method given. It counts as physicochemical.
For series [2], the target named is T1, human glucagon receptor (human, UniProt P47871 26-477). Put plainly: cell-based or functional assay.
In series [3] the target is T2, human glucagon-like peptide-1 receptor (human, UniProt P43220 24-463). Description: cell-based or functional assay.
Target sequence in this assay (P43220 24-463): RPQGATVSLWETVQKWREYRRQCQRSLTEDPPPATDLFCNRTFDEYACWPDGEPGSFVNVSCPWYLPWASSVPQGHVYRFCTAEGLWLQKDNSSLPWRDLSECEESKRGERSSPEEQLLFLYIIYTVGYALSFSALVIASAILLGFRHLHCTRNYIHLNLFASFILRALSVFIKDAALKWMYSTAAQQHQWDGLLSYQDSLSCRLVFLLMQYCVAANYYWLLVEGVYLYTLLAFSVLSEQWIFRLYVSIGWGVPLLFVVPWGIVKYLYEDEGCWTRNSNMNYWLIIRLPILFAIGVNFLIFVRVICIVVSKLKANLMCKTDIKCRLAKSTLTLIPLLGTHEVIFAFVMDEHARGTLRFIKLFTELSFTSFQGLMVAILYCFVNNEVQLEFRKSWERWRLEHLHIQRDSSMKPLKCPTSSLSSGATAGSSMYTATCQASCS
Series [4] addresses human glucose-dependent insulinotropic polypeptide receptor (human) (UniProt P48546). Description: cell-based or functional assay.
The nature of series [5]: Pharmacokinetics in mice after single intravenous injection. The settings on record: mouse, in vivo, male C57 mice, single intravenous dose 200 nmol/kg, plasma. On the set-up: species or system C57 mice. The procedure, abridged:
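Male C57 mice (~25 g, 4-6 weeks, n=3) received a single i.v. dose of 200 nmol/kg in 1×PBS. Plasma collected from 5 min to 72 h was methanol-precipitated with verapamil internal standard and quantified by LC-MS (ESI positive, MRM); PK parameters were calculated by PKSolver.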

A short description of series [6]: Solubility in the vehicle. It counts as physicochemical. The note with it: stated in the summary only, no test example.
A further series addresses T3, human GLP-1R (Homo sapiens, UniProt P43220).
T3 construct: expressed in transfected cells; host or cells: CHO-K1 clonal cell line
Description: cAMP HTRF agonist activity assay in CHO-K1 cells expressing GLP-1R. Format: cell-based. The procedure, abridged:
(§1)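 Clonal CHO-K1 lines, 5000 cells/well, exposed to polypeptides for 30 min at 37°C. Intracellular cAMP read by HTRF (cAMP-d2 conjugate plus anti-cAMP-Eu cryptate in lysis buffer). Relative EC50 from four-parameter nonlinear fit of percent maximum response against concentration.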
Background: In TR-FRET formats the signal depends on donor and acceptor labels being close together.

Another series concerns the target T4, human GIPR (Homo sapiens, UniProt P48546).
T4 construct: expressed in transfected cells; host or cells: CHO-K1 clonal cell line
T4 sequence (P48546 22-466): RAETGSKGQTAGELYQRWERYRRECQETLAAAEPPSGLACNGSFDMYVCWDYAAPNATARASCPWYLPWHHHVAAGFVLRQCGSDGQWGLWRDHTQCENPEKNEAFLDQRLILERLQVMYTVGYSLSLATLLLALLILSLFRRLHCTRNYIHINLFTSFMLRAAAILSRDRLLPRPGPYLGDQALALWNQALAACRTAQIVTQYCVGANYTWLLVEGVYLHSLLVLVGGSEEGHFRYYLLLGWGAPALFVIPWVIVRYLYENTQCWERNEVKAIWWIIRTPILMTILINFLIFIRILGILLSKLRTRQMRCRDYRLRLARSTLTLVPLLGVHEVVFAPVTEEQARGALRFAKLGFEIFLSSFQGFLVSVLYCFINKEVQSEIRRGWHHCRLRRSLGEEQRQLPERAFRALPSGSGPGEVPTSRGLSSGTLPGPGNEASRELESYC
Description: cAMP HTRF agonist activity assay in CHO-K1 cells expressing GIPR. It counts as cell-based. The procedure, abridged:
as §1

Series [7] is described as follows: In vivo efficacy in diet-induced obesity (DIO) mouse model. On the set-up: species or system C57BL/6J mice. The settings on record: 10 nmol/kg subcutaneous once daily for 24 days, indicating good safety. The text has this:
In this example, a DIO mouse model established by high-fat diet induction was used to evaluate the effects on and improvement of obesity and diabetes-related indicators in DIO mice after subcutaneous injection of some of the compounds in the present disclosure.
4.1 Experimental methods: Obese male C57BL/6J mice (23-24 weeks old, obtained from Beijing Vital River Laboratory Animal Technology Co., Ltd.) induced by a high-fat diet were purchased. Six-week-old male C57BL/6J mice were fed a 60% high-fat diet (RD D12492) until their body weight reached 45-50g to obtain DIO model mice. After arriving at the facility and undergoing a week of acclimatization feeding, the animals were randomly divided into groups according to their body weight and administered vehicle (model group), LY3437943, Compound 15, Compound 16, Compound 17 and Compound 18 via subcutaneous injection in the neck. The compound was administered at a dose of 10 nmol/kg, and the frequency of administration was once daily via subcutaneous injection for 24 days. Each group contained 5 DIO mice. According to the experimental design, the body weight of each mouse was weighed and recorded daily at 3 pm or before administration, the average body weight of each group of mice was calculated, and a curve of body weight change over time was plotted. After the experiment, the fat and other organs of the mice were removed from various parts of the body, weighed, and recorded.

For series [8], the target named is T5, human glucose-dependent insulinotropic polypeptide receptor (human, UniProt P48546 22-466).
T5 sequence (looked up): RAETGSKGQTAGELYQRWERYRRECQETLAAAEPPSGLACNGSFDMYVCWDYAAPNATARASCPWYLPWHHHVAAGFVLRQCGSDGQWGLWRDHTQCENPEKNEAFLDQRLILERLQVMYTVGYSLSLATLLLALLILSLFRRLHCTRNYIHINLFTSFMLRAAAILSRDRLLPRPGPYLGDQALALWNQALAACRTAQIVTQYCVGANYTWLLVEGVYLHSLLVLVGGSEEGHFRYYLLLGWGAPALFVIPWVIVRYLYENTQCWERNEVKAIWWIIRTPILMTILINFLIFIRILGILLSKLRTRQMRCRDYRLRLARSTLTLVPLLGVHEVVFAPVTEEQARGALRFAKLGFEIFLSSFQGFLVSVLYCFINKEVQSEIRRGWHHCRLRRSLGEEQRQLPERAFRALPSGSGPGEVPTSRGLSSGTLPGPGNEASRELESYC
Description: cell-based or functional assay.

The target of series [9] is T1, human glucagon receptor. Put plainly: cell-based or functional assay. The source holds these as a separate data set.
Series [10] has as its target T2, human glucagon-like peptide-1 receptor. Description: cell-based or functional assay. This is another data set of the same source.

We go through five molecules from EP4745153A1, “GLP-1, GIP AND GCG RECEPTOR […] USE THEREOF” (Jiangsu Hengrui Pharmaceuticals Co., Ltd., priority 2023, dated 2025).

Like-named read-outs stand apart in the source and are kept apart here. Starred links: 1 amine or outer side, 2 acyl side, 3 side chain; linkers in the order of their positions; H or OH if unused. Non-standard residues stand in square brackets, D forms with d. Residues, ends and D or L forms follow the SMILES beside them. Groups on a side chain read outwards from the residue. No end group written: not given here. *: point of attachment. C20 diacid = O=C(O)CCCCCCCCCCCCCCCCCCC(=O)*; γGlu = O=C(O)[C@H](CCC(=O)[*:2])N[*:1]; αMeL = CC(C)C[C@](C)(N)C(=O)O; αMeK = C[C@](N)(CCCCN)C(=O)O; αMeS = C[C@](N)(CO)C(=O)O; AEEA = NCCOCCOCC(=O)O; αS = not defined here; Aib = CC(C)(N)C(=O)O

T1 sequence (P47871 26-477): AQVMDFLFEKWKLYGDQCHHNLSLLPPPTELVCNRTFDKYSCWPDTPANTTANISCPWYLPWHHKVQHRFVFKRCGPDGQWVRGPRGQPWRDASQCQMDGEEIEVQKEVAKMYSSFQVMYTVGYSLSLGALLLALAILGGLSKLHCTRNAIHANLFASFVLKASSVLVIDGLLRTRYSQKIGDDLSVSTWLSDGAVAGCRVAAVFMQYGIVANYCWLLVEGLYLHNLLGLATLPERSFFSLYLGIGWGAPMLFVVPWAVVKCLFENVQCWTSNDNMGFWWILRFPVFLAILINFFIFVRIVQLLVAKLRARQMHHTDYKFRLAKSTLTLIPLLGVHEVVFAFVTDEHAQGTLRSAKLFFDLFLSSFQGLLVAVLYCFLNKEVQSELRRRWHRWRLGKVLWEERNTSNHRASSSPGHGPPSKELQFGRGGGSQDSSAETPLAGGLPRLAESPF
T3 sequence (P43220 24-463): as the sequence (P43220 24-463) above

For “H-Aib-HGTFTSDYSI-αL-LE-K(-OEG-OEG-γGlu-C(O)-(CH2)18-COOH)-KAAQEFVEWLLAGGPSSGAPPPS-NH2 (H[Aib]HGTFTSDYSI[αMeL]LEK([AEEA-AEEA-γGlu-C20 diacid])KAAQEFVEWLLAGGPSSGAPPPS-NH2; N-terminus assumed; SMILES CC[C@H](C)[C@H](NC(=O)[C@H](CO)NC(=O)[C@H](Cc1ccc(O)cc1)NC(=O)[C@H](CC(=O)O)NC(=O)[C@H](CO)NC(=O)[C@@H](NC(=O)[C@H](Cc1ccccc1)NC(=O)[C@@H](NC(=O)CNC(=O)[C@H](Cc1c[nH]cn1)NC(=O)C(C)(C)NC(=O)[C@@H](N)Cc1c[nH]cn1)[C@@H](C)O)[C@@H](C)O)C(=O)N[C@@](C)(CC(C)C)C(=O)N[C@@H](CC(C)C)C(=O)N[C@@H](CCC(=O)O)C(=O)N[C@@H](CCCCNC(=O)COCCOCCNC(=O)COCCOCCNC(=O)CC[C@H](NC(=O)CCCCCCCCCCCCCCCCCCC(=O)O)C(=O)O)C(=O)N[C@@H](CCCCN)C(=O)N[C@@H](C)C(=O)N[C@@H](C)C(=O)N[C@@H](CCC(N)=O)C(=O)N[C@@H](CCC(=O)O)C(=O)N[C@@H](Cc1ccccc1)C(=O)N[C@H](C(=O)N[C@@H](CCC(=O)O)C(=O)N[C@@H](Cc1c[nH]c2ccccc12)C(=O)N[C@@H](CC(C)C)C(=O)N[C@@H](CC(C)C)C(=O)N[C@@H](C)C(=O)NCC(=O)NCC(=O)N1CCC[C@H]1C(=O)N[C@@H](CO)C(=O)N[C@@H](CO)C(=O)NCC(=O)N[C@@H](C)C(=O)N1CCC[C@H]1C(=O)N1CCC[C@H]1C(=O)N1CCC[C@H]1C(=O)N[C@@H](CO)C(N)=O)C(C)C) [Compound 0125]”, in series [1], the “appearance of the solution in the vehicle” value was “remains clear and transparent”.
On to LY3437943 (peptide), for which the Activity against human GCGR (EC50 nM) with human glucagon receptor [2] is 0.412 nM. This molecule also returned an Activity against human GLP-1R (EC50 nM) in [3] of 0.08 nM. Further, the Activity against human GIPR (EC50 nM) in [4] came to 0.002 nM.
Take “H-Aib-HGTFTSDYS-αK-LLE-K(-OEG-OEG-γGlu-C(O)-(CH2)18-COOH)-KAA-αS-EFVEWLIEGGPSSGAPPPS-NH2 (H[Aib]HGTFTSDYS[αMeK]LLEK([AEEA-AEEA-γGlu-C20 diacid])KAA[αS]EFVEWLIEGGPSSGAPPPS-NH2; reading uncertain; also: printed as H-Aib-HGTFTSDYS-αK-LLE-K(-OEG-OEG-γGlu-C(O)-(CH2)18-COOH)-KAA-αS-EFVEWLIEGGPSSGAPPPS-NH2) [Compound 0126]”: in [1], the “appearance of the solution in the vehicle” value is “remains clear and transparent”.
The term AUC(0-inf) denotes the area under the concentration-time curve extrapolated to infinity. Lower therefore signals less exposure. Broadly, the EC50 is the concentration needed to bring the measured effect to its halfway point. A higher EC50 goes with weaker potency. In series [5], `CC[C@H](C)[C@H](NC(=O)[C@H](CO)NC(=O)[C@H](Cc1ccc(O)cc1)NC(=O)[C@H](CC(=O)O)NC(=O)[C@H](CO)NC(=O)[C@@H](NC(=O)[C@H](Cc1ccccc1)NC(=O)[C@@H](NC(=O)CNC(=O)[C@H](Cc1c[nH]cn1)NC(=O)C(C)(C)NC(=O)[C@@H](N)Cc1c[nH]cn1)[C@@H](C)O)[C@@H](C)O)C(=O)N[C@@](C)(CC(C)C)C(=O)N[C@@H](CC(C)C)C(=O)N[C@@H](CCC(=O)O)C(=O)N[C@@H](CCCCNC(=O)COCCOCCNC(=O)COCCOCCNC(=O)CC[C@H](NC(=O)CCCCCCCCCCCCCCCCCCC(=O)O)C(=O)O)C(=O)N[C@@H](CCCCN)C(=O)N[C@@H](C)C(=O)N[C@@H](C)C(=O)N[C@@H](CCC(N)=O)C(=O)N[C@@H](CCC(=O)O)C(=O)N[C@@H](Cc1ccccc1)C(=O)N[C@H](C(=O)N[C@@H](CCC(=O)O)C(=O)N[C@@H](Cc1c[nH]c2ccccc12)C(=O)N[C@@H](CC(C)C)C(=O)N[C@@H](CC(C)C)C(=O)N[C@@H](C)C(=O)NCC(=O)NCC(=O)N1CCC[C@H]1C(=O)N[C@@H](CO)C(=O)N[C@@H](CO)C(=O)NCC(=O)N[C@@H](C)C(=O)N1CCC[C@H]1C(=O)N1CCC[C@H]1C(=O)N1CCC[C@H]1C(=O)N[C@@H](CO)C(N)=O)C(C)C` [Compound 0125] (H-H[Aib]HGTFTSDYSI[αMeL]LEK([AEEA-AEEA-γGlu-C20 diacid])KAAQEFVEWLLAGGPSSGAPPPS-NH2) yielded an AUC(0-inf) of 96.1 µM·h and a C0 of 5.79 µM. In addition, the clearance in series [5] (read-out: CLp) was 2.1 mL/h/kg. The half-life in [5] (read-out: T1/2 (converted)) is 14.6 h. The “solubility in the vehicle” value in series [6] was no less than 20 mg/mL. Besides, at human GLP-1R, the EC50 was determined as 32 pM. Further, the EC50 at human GIPR worked out at 2 pM. Besides, in series [7], the “final body weight relative to body weight of mice on a normal diet (Chow)” value is no less than 80%.

B1: Compound No. 0126 (peptide)
peptide: H[Aib]HGTFTSDYS[αMeK]LLEK([AEEA-AEEA-γGlu-C20 diacid])KAA[αMeS]EFVEWLIEGGPSSGAPPPS-NH2
modifications: N-terminus assumed
SMILES: CC[C@H](C)[C@H](NC(=O)[C@H](CC(C)C)NC(=O)[C@H](Cc1c[nH]c2ccccc12)NC(=O)[C@H](CCC(=O)O)NC(=O)[C@@H](NC(=O)[C@H](Cc1ccccc1)NC(=O)[C@H](CCC(=O)O)NC(=O)[C@](C)(CO)NC(=O)[C@H](C)NC(=O)[C@H](C)NC(=O)[C@H](CCCCN)NC(=O)[C@H](CCCCNC(=O)COCCOCCNC(=O)COCCOCCNC(=O)CC[C@H](NC(=O)CCCCCCCCCCCCCCCCCCC(=O)O)C(=O)O)NC(=O)[C@H](CCC(=O)O)NC(=O)[C@H](CC(C)C)NC(=O)[C@H](CC(C)C)NC(=O)[C@](C)(CCCCN)NC(=O)[C@H](CO)NC(=O)[C@H](Cc1ccc(O)cc1)NC(=O)[C@H](CC(=O)O)NC(=O)[C@H](CO)NC(=O)[C@@H](NC(=O)[C@H](Cc1ccccc1)NC(=O)[C@@H](NC(=O)CNC(=O)[C@H](Cc1c[nH]cn1)NC(=O)C(C)(C)NC(=O)[C@@H](N)Cc1c[nH]cn1)[C@@H](C)O)[C@@H](C)O)C(C)C)C(=O)N[C@@H](CCC(=O)O)C(=O)NCC(=O)NCC(=O)N1CCC[C@H]1C(=O)N[C@@H](CO)C(=O)N[C@@H](CO)C(=O)NCC(=O)N[C@@H](C)C(=O)N1CCC[C@H]1C(=O)N1CCC[C@H]1C(=O)N1CCC[C@H]1C(=O)N[C@@H](CO)C(N)=O
B1: the “Activity against human GIPR (EC50 nM)” value in [8] amounted to 0.002 nM. For the same molecule, the “Activity against human GCGR (EC50 nM)” value in the series with human glucagon receptor [9] was determined as 0.008 nM. Moreover, in series [10], the “Activity against human GLP-1R (EC50 nM)” value amounted to 0.008 nM.
